Data on one molecule can be found in article PMC7900914 (Nature structural & molecular biology, 2017).

For orientation: Kd means the equilibrium constant for the complex coming apart.

In the assay the target is HLA-B*57:01–TW10 (human |  | HIV-1). In words: SPR. On the technique in general: SPR reads the build-up and loss of mass on a sensor chip optically.

B1: KIR3DL1*001 (similar construct, from insect cells) (receptor)
chain: HMGGQDKPFLSAWPSAVVPRGGHVTLRCHYRHRFNNFMLYKEDRIHIPIFHGRIFQESFNMSPVTTAHAGNYTCRGSHPHSPTGWSAPSNPVVIMVTGNHRKPSLLAHPGPLVKSGERVILQCWSDIMFEHFFLHKEGISKDPSRLVGQIHDGVSKANFSIGPMMLALAGTYRCYGSVTHTPYQLSAPSDPLDIVVTGPYEKPSLSAQPGPKVQAGESVTLSCSSRSSYDMYHLSREGGAHERRLPAVRKVNRTFQADFPLGPATHGGTYRCFGSFRHSPYEWSDPSDPLLVSVTGNPS
B1 had a Kd of around 60 µM.
